Values joined by “and” are separate entries in the source; they are usually repeats but may differ in a detail not shown here. Equal values may be shown once.
Tests used:
[1] = target: T1, σNS (sigma NS) (Avian reovirus strain 1733) (UniProt W8NR44); assay: FCS; settings: FA: 10 mM HEPES-NaOH pH 7.5, 150 mM NaCl, 21 C, 1 nM RNA, 30 min; smFRET in same buffer at 37 C; SEC 25 mM HEPES-Na pH 7.8, 150 mM NaCl, 4 C
T1 sequence: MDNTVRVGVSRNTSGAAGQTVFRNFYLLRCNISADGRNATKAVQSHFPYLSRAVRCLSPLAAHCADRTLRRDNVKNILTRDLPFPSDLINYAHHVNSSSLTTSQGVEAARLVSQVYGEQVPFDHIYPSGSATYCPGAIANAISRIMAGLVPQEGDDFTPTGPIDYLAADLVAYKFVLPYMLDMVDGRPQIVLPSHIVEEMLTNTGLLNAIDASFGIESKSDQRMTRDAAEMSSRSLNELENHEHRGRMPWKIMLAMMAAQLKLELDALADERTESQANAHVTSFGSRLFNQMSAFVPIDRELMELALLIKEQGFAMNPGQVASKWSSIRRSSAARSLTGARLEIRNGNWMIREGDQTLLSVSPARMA

[2] = target: T1, σNS (sigma NS) (Avian reovirus strain 1733); assay: fluorescence anisotropy; settings: FA: 10 mM HEPES-NaOH pH 7.5, 150 mM NaCl, 21 C, 1 nM RNA, 30 min; smFRET in same buffer at 37 C; SEC 25 mM HEPES-Na pH 7.8, 150 mM NaCl, 4 C
[3] = target: T1, σNS (sigma NS) (Avian reovirus strain 1733); assay: ensemble FRET; settings: FA: 10 mM HEPES-NaOH pH 7.5, 150 mM NaCl, 21 C, 1 nM RNA, 30 min; smFRET in same buffer at 37 C; SEC 25 mM HEPES-Na pH 7.8, 150 mM NaCl, 4 C
[4] = target: T1, σNS (sigma NS) (Avian reovirus strain 1733); assay: fluorescence anisotropy; settings: FA: 10 mM HEPES-NaOH pH 7.5, 150 mM NaCl, 21 C, 1 nM RNA, 30 min; smFRET in same buffer at 37 C; SEC 25 mM HEPES-Na pH 7.8, 150 mM NaCl, 4 C; remark: listed apart in the source
[5] = target: avian reovirus σNS (ARV strain 1733), full-length recombinant (avian reovirus strain 1733); assay: AUC
[6] = target: avian reovirus σNS (ARV strain 1733), full-length recombinant (avian reovirus strain 1733); assay: SAXS
[7] = target: avian reovirus σNS (ARV strain 1733), full-length recombinant (avian reovirus strain 1733); assay: native MS
[8] = target: avian reovirus σNS (ARV strain 1733), full-length recombinant (avian reovirus strain 1733); assay: native MS; remark: listed apart in the source

MS2 RNA (3569 nt)
Kd [1]: 250 nM

GGGAGACCUAUUCUCUUUUUCUCUCCUUUUCCCCCCUGUUGCUUUAUUUUCCUUCUUUGCCUUUUUCUCUCUUUUUUUUUCUUUUUUCCCUUUCUGCUUUCCUCCCCUAUUCUCCCCUCUU [120-nt RNA]
Kd [2]: 25 nM

ATAGGTATAACAGTTAACGTATGCTATACGCTAATAGCATACGTTT [46-nt stem-loop]
Kd [3]: 1100 nM
Kd [2]: 333 nM

GACCUAUUCUCUUUUUCUCU [20-nt RNA]
Kd [1]: 39.5 nM
Kd [2]: 26.5 nM
Kd [4]: 35 nM

avian reovirus σNS (ARV strain 1733), full-length recombinant (natural protein)
stoichiometry N [5]: 6
stoichiometry N [6]: 6
stoichiometry N [7]: 6 and 2 and 4
stoichiometry N [8]: 8

20-nt ssDNA
Kd [4]: 24.5 nM
